Test [1] has as its target T1, mutant CLEC9A ectodomain (hCLEC9A W131A, W227A) (human, UniProt Q6UXN8 57-241, W131A | W227A).
T1 construct: human CLEC9A extracellular region (ecto) with W131A and W227A in the CTLD; Same construct as m2 with the two tryptophan mutations; also called hCLEC9A-ecto (W->A); hCLEC9A-ecto W->A
As to the kind of experiment: ELISA; plates coated with GST-RNF41-C, GST-RNF41-RBC or GST (10 μg/ml); FLAG-tagged Clec ectodomains 10 to 0.04 μg/ml in solution; detected with anti-FLAG HRP. The note with it: both partners purified. A general note: ELISA stands for enzyme-linked immunosorbent assay.

The target of test [2] is T2, FLAG-tagged recombinant human CLEC9A ecto-domains (hCLEC9A-ecto) (human, UniProt Q6UXN8 57-241).
T2 construct: human CLEC9A, full extracellular region (ecto) including the CTLD and stalk; also called human wild-type CLEC9A
T2 sequence (Q6UXN8 57-241): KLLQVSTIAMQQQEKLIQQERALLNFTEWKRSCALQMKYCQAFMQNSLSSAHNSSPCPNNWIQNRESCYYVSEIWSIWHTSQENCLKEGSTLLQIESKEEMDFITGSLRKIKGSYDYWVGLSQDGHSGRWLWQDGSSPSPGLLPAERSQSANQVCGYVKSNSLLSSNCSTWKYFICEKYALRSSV
The test is described as above. The conditions noted are these: both partners purified.

T1 sequence (Q6UXN8 57-241 W131A/W227A): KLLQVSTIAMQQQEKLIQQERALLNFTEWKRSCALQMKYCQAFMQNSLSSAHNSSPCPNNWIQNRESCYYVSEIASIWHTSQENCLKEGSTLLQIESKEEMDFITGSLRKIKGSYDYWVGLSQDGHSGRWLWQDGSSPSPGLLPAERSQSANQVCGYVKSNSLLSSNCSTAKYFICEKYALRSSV

B1: GST-tagged RNF41 C-terminal domain (RNF41-C) (domain or fragment, human, UniProt Q9H4P4 169-317, looked up)
chain: DIQLLKAYMRAIRSVNPNLQNLEETIEYNEILEWVNSLQPARVTRWGGMISTPDAVLQAVIKRSLVESGCPASIVNELIENAHERSWPQGLATLETRQMNRRYYENYVAKRIPGKQAVVVMACENQHMGDDMVQEPGLVMIFAHGVEEI
notes: RNF41 C-terminal domain; region 169-DIQL…VEEI-317; Cloned into a modified pGEX-2T vector; also called GST-RNF41-C; source: E. coli BL21 DE3, purified (Glutathione-Sepharose, SEC)
Regarding B1, the binding result in test [1] and in test [2] was “binds” in each case.

The values above are taken from paper PMC7710356, “RNF41 regulates the damage recognition receptor Clec9A and antigen cross-presentation in mouse dendritic cells” (eLife, 2020).
